Results: patent publication US20180022822A1, “NOVEL ANTI-FIBROBLAST ACTIVATION PROTEIN (FAP) BINDING AGENTS AND USES THEREOF” (Mabimmune Diagnostics AG, priority 2016, published 2018)

Columns and labels:
[1] = biological target: T1, captured FAP (sFAP) (Homo sapiens, UniProt Q12884); assay: capture ELISA, FAP captured via his-tag with coated anti-His antibody; assay type: binding; settings: ELISA, varying antibody concentrations
T1 sequence (Q12884 1-760): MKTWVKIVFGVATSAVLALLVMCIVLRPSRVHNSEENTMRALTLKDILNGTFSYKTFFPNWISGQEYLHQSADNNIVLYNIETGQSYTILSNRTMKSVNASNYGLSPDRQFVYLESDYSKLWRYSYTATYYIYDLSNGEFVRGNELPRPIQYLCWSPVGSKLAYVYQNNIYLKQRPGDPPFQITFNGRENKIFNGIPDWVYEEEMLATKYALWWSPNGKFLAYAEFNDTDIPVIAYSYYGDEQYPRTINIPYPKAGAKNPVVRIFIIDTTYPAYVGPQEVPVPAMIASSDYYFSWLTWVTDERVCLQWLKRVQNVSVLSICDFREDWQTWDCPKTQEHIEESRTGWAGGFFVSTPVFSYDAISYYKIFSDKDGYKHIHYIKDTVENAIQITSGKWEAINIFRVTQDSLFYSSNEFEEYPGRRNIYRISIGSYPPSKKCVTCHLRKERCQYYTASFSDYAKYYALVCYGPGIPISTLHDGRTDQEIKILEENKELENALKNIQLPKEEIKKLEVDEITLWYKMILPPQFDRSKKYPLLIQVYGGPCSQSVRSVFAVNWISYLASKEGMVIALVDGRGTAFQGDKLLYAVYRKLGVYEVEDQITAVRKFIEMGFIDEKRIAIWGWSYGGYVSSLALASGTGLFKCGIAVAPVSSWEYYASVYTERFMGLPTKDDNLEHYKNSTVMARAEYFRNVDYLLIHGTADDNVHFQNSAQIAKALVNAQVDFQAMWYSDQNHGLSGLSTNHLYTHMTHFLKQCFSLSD
Procedure: (§1) ELISA assays were performed with varying antibody concentrations to validate the binding of the exemplary antibodies of the present invention to FAP and to be able to determine their half maximal effective concentration (EC50). For the exemplary recombinant human NI-206-18H2, NI-206-20A8, NI-206-6D3, ‘NI-206-14C5, NI-206-34C11, NI-206.82C2, NI-206.59B4, NI-206.22F7, NI-206.27E8, NI-206.12G4 and NI-206.17A6 antibodies, 96-well microplates (Costar, Corning, USA) were coated with FAP, with a mixture of the 3 peptides or with BSA (Sigma-Aldrich, Buchs, Switzerland) diluted to a concentration of 5 μg/ml in carbonate ELISA coating buffer (15 mM Na2CO3, 35 mM NaHCO3, pH 9.4) for the direct ELISA. For the capture ELISA, the microplates were coated with mouse anti-His monoclonal antibody (Clontech) diluted to a concentration of 3 μg/ml in PBS, the plates were then blocked, FAP or BSA were diluted to a concentration of 2 μg/ml in PBS and added to the plates to be captured. The binding efficiency of the antibodies was then tested.
(§2) The EC50 values were estimated by a non-linear regression using GraphPad Prism (San Diego, USA) software. […] The binding of NI-206.12G4 towards sFAP was not tested.

[2] = biological target: T2, directly coated FAP (FAP) (Homo sapiens, UniProt Q12884); assay: direct ELISA on directly coated FAP; assay type: binding; settings: ELISA, varying antibody concentrations
T2 sequence (Q12884 1-760): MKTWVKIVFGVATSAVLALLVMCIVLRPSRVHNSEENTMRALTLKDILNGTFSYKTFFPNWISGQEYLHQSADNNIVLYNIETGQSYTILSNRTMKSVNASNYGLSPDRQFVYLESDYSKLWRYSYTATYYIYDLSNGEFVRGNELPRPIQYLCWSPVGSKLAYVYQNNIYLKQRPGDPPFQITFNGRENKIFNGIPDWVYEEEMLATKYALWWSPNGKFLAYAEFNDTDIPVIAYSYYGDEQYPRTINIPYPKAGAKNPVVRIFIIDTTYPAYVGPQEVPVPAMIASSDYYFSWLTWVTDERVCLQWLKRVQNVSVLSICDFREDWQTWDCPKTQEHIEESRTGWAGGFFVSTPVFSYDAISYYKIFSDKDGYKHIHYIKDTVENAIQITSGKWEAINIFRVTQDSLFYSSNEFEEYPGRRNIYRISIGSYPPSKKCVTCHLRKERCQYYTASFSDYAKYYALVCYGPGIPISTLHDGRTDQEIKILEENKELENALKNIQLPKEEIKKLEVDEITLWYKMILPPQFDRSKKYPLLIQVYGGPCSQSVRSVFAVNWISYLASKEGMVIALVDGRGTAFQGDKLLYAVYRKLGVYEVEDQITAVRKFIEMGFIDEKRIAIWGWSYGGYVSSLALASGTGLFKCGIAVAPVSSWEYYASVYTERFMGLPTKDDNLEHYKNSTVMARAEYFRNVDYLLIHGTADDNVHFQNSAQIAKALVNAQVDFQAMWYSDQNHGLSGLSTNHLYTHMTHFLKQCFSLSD
Procedure: as §1, §2

[3] = system: directly coated FAP peptides mixture (cFAP); assay: direct ELISA on coated mixture of FAP peptides; assay type: binding, human; settings: peptides 378-392, 622-636, 721-736
Procedure: as §1, §2

[4] = biological target: T3, BSA (Bos taurus, UniProt P02769); assay: ELISA control binding to BSA; parameters: species or system bovine
T3 construct: purchased Sigma-Aldrich
Procedure: as §1

[5] = biological target: T4, recombinant human FAP (sFAP, FAP) versus CD26 and unrelated human antigens (A-N) (Homo sapiens, UniProt Q12884); assay: binding specificity ELISA against FAP versus unrelated human antigens; settings: detection antibody at 20, 4 and 0.8 nM
T4 sequence (Q12884 26-760 limits assumed): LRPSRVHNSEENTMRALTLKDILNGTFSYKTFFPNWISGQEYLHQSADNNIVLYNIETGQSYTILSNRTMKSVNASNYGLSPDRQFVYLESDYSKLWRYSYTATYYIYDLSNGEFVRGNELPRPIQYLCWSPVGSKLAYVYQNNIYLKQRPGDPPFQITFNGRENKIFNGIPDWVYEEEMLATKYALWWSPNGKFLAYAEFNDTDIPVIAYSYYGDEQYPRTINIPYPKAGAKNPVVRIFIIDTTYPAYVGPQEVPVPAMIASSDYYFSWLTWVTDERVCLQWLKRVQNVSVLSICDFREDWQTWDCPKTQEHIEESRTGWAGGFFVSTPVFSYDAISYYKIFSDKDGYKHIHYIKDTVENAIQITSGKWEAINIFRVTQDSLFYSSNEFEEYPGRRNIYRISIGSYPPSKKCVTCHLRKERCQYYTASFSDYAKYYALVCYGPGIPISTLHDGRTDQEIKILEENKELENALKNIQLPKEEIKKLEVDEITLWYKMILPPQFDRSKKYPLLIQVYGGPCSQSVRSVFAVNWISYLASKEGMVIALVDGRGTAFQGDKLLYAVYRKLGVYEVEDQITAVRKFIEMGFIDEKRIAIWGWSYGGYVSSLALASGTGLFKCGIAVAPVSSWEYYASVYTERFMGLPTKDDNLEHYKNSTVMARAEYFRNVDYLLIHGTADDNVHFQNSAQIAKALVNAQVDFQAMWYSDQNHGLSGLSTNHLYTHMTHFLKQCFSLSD
Procedure: A mouse anti-6×-histidine tag antibody (Clonetech) was coated at a concentration of 3 μg/ml in PBS to a 96 well ELISA plate, the plates were then blocked with 5% BSA in PBS, and enzymatically active recombinant human FAP with an N-terminus 6× histidine tag was added to the plates to be captured. The binding efficiency of NI-206.82C2, NI-206.18H2, NI-206.20A8 and NI-206.6D3 (at 20 nM, 4 nM, and 0.8 nM) against sFAP and of NI-206.18H2, NI-206.20A8 and NI-206.6D3 against FAP as well was then tested by 1 hour incubation, followed by washing with PBS and detection with an HRP-labelled goat anti-human antibody (Jackson Immunoresearch) using a colormetric assay. To assess NI-206.82C2, NI-206.18H2, NI-206.20A8 and NI-206.6D3 binding other targets, recombinant human CD26 (only in case of NI-206.82C2) and fourteen other unrelated recombinant human proteins (A-N) were individually added to a 96-well ELISA plate in triplicate, and the binding efficacy of NI-206.82C2 was evaluated. (FIG. 7A to D)

T3 sequence (P02769 25-607): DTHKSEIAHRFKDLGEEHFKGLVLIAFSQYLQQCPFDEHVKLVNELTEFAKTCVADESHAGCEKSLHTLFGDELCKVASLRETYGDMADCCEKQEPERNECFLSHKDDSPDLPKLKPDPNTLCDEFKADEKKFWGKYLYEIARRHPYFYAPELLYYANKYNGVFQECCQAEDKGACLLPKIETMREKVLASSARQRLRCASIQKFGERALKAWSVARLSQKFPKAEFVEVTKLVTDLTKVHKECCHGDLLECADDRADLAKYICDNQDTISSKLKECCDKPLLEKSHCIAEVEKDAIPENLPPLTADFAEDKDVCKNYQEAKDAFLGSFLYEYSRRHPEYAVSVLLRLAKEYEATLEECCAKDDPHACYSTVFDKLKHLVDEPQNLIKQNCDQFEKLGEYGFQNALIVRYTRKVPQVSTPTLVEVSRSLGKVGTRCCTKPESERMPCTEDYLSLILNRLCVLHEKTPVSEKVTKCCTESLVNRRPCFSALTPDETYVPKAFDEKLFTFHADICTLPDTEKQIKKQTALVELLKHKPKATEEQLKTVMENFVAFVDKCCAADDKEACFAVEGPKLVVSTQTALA

B1: NI-206.20A8: human-derived recombinant anti-FAP antibody; VH SEQ ID NO: 45, VL SEQ ID NO: 47 (antibody, listed as Homo sapiens, V domains shown)
VH: EVQLVESGGGLVQPGGSLKLSCAGSGLDLSASAVHWVRQASGKGLEWIGRIRSKPNHYATTYLASVRGRFILSRDDSENTAYLQMNSLRTEDTAVYYCRIGILNSDHWGRGTLVTVSS
VL: QSVLTQPPSASGTPGQTVIISCSGSSSNLGRKTLNWYQQLPGAAPKLLIFKNDQRASGVPDRFSASKSGTSASLTISGLQSDDEADYYCGTWDDSLDNWVFGGGTKVTVL
[1]
  binding to the captured FAP: binds less efficiently
[2]
  binding to the directly coated FAP: binds less efficiently
[3]
  EC50 to the directly coated FAP peptides mixture (cFAP): did not show any binding
[4]
  binding to BSA: does not bind
[5]
  colorimetric ELISA signal against FAP versus panel of unrelated human antigens: significantly greater
